Experimental data reported in patent EP4039268A1 (IMBA-Institut für Molekulare Biotechnologie GmbH, dated 2022).

B1: Ncan CRD-mouse IgG2a-Fc fusion protein (Fc fusion)
chain: not shown
B2: Vcan CRD-mouse IgG2a-Fc fusion protein (Fc fusion)
chain: not shown
B3: Lgals9_2 CRD-mouse IgG2a-Fc fusion protein (Fc fusion)
chain: FYTPIPNGLYPSKSIMISGNVLPDATRFHINLRCGGDIAFHLNPRFNENAVVRNTQINNSWGQEERSLLGRMPFSRGQSFSVWIICEGHCFKVAVNGQHMCEYYHRLKNLQDINTLEVAGDIQLTHVQTGGGSGGGSGGGS
B4: Ly75_5 CRD-mouse IgG2a-Fc fusion protein (Fc fusion)
chain: IEGSEYWFVADPHLNYEEAVLYCASNHSFLATITSFTGLKAIKNKLANISGEEQKWWVKTSENPIDRYFLGSRRRLWHHFPMTFGDECLHMSAKTWLVDLSKRADCNAKLPFICEGGGSGGGSGGGS
B5: Lgals6_2 CRD-mouse IgG2a-Fc fusion protein (Fc fusion)
chain: YVGALQGGFTVRRTIIIKGYVLPTAKTFAINFRVGSSEDIALHINPRIGDCLVRNSYMNGSWGTEERMVAYNPFGPGQFFDLSIRCGMDRFKVFANGIHLFNFSHRFQALRKINTLEINGDLTLSYVHIGGGSGGGSGGGS
B6: Bcan CRD-mouse IgG2a-Fc fusion protein (Fc fusion)
chain: not shown
B7: Ly75_2 CRD-mouse IgG2a-Fc fusion protein (Fc fusion)
chain: NNGFCYLLANESSSWDAAHLKCKAFGADLISMHSLADVEVVVTKLHNGDVKKEIWTGLKNTNSPALFQWSDGTEVTLTYWNENEPSVPFNKTPNCVSYLGKLGQWKVQSCEKKLRYVCKGGGSGGGSGGGS
B8: Clec2g CRD-mouse IgG2a-Fc fusion protein (Fc fusion)
chain: VGNKCFYFSEYTSNWTFAQTFCMAQEAQLARFDNEKELNFLMRYKANFDSWIGLHRESSEHPWKWTDNTEYNNMIPIQGVETCAYLSGNGISSSRHYIPRIWICSGGGSGGGSGGGS
B9: Ly75_1 CRD-mouse IgG2a-Fc fusion protein (Fc fusion)
chain: QIGSCYQFNNQEILSWKEAYVSCQNQGADLLSIHSAAELAYITGKEDIARLVWLGLNQLYSARGWEWSDFRPLKFLNWDPGTPVAPVIGGSSCARMDTESGLWQSVSCESQQPYVCKGGGSGGGSGGGS
B10: Clec2i CRD-mouse IgG2a-Fc fusion protein (Fc fusion)
chain: VGNKCFYFSGYPRNWTFAQAFCMAQEAQLARFDNEEELIFLKRFKGDFDCWIGLHRESSEHPWKWTNNTEYNNMNPILGVGRYAYLSSDRISSSRSYINRMWICSGGGSGGGSGGGS
B11: Clec2h CRD-mouse IgG2a-Fc fusion protein (Fc fusion)
chain: FGSKCFYFSEDMGNWTFSQSSCVASNSHLALFHSLEELNFLKRYKGTSDHWIGLHRASTQHPWIWTDNTEYSNLVLTRGGGECGFLSDNGISSGRSYTHRKWICSGGGSGGGSGGGS
B12: Colec12 CRD-mouse IgG2a-Fc fusion protein (Fc fusion)
chain: FTDKCYYFSLEKEIFEDAKLFCEDKSSHLVFINSREEQQWIKKHTVGRESHWIGLTDSEQESEWKWLDGSPVDYKNWKAGQPDNWGSGHGPGEDCAGLIYAGQWNDFQCDEINNFICEGGGSGGGSGGGS
B13: Siglec10 CRD-mouse IgG2a-Fc fusion protein (Fc fusion)
chain: VQRIVKAQEGLCIFVPCSFSSPEGKWLNRSPLYGYWFKGIRKPSLSFPVATNNKDKVLEWEARGRFQLLGDISKKNCSLLIKDVQWGDSTNYFFRMERGFERFSFKEEFRLQVGGGSGGGSGGGS

biological target: T1, full-length trimeric SARS-CoV-2 Spike protein (Spike-H6) (SARS-CoV-2, N-glycosylated (22 N-glycosylation sites)); assay: ELISA screen
T1 construct: also called trimeric Spike; full-length Spike-H6

Row | Binder | Mean normalized OD
1 | B1 | -0.09 OD
2 | B2 | 0.064 OD
3 | B3 | 0.056 OD
4 | B4 | -0.17 OD
5 | B5 | 0.135 OD
6 | B6 | -0.111 OD
7 | B7 | -0.319 OD
8 | B8 | -0.241 OD
9 | B9 | -0.434 OD
10 | B10 | -0.61 OD
11 | B11 | -0.387 OD
12 | B12 | 0.04 OD
13 | B13 | 0.046 OD

biological target: T2, monomeric SARS-CoV-2 receptor binding domain (RBD-H6) (SARS-CoV-2, UniProt P0DTC2 319-541); assay: ELISA screen
T2 construct: Made in HEK293-6E cells; also called RBD Spike; monomeric RBD

Row | Binder | Mean normalized OD
14 | B2 | 0.052 OD
15 | B3 | 0.033 OD
16 | B12 | 0.027 OD
17 | B13 | 0.015 OD

biological target: T3, human recombinant soluble ACE2 (human, UniProt Q9BYF1 18-740); assay: ELISA screen
T3 construct: also called hrsACE2
T3 sequence (Q9BYF1 18-740 limits assumed): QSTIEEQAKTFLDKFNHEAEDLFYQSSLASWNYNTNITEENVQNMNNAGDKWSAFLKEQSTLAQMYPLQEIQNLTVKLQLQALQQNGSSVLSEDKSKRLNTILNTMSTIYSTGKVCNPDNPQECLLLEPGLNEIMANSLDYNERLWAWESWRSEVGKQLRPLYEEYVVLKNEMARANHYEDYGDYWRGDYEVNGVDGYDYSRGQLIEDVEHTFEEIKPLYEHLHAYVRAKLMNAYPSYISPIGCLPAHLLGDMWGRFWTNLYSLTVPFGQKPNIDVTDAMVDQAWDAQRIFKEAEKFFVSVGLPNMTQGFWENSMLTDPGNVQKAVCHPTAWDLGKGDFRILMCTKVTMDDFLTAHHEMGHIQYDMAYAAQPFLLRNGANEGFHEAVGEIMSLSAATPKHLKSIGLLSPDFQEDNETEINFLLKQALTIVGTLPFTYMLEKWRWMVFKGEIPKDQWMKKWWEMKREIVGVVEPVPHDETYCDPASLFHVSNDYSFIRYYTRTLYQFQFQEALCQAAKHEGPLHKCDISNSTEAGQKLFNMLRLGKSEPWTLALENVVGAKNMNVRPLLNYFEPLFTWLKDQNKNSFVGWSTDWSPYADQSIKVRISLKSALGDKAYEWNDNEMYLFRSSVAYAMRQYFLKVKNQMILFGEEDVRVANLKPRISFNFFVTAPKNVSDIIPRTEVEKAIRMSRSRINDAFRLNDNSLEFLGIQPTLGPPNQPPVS

Row | Binder | Mean normalized OD
18 | B1 | -0.589 OD
19 | B4 | -0.106 OD
20 | B6 | -0.538 OD
21 | B7 | -0.135 OD
22 | B8 | -0.722 OD
23 | B9 | -0.571 OD
24 | B10 | -0.249 OD
25 | B11 | -0.707 OD
